T1: human CD19 antigen (human, UniProt P15391 20-291, limits assumed)
T1 sequence (looked up): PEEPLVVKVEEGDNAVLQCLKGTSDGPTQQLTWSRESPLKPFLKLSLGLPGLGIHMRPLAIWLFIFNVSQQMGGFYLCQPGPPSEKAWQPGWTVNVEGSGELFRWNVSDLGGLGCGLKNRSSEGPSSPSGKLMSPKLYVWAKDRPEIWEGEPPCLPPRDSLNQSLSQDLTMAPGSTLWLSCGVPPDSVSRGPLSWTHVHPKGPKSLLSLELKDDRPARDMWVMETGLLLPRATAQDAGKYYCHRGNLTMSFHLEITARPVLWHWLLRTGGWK

T2: CD19 on CD19-positive target cells SU-DHL-10 and Raji (human, UniProt P15391 20-556)
T2 construct: whole, on cells; also called cell surface antigens
T2 sequence (looked up): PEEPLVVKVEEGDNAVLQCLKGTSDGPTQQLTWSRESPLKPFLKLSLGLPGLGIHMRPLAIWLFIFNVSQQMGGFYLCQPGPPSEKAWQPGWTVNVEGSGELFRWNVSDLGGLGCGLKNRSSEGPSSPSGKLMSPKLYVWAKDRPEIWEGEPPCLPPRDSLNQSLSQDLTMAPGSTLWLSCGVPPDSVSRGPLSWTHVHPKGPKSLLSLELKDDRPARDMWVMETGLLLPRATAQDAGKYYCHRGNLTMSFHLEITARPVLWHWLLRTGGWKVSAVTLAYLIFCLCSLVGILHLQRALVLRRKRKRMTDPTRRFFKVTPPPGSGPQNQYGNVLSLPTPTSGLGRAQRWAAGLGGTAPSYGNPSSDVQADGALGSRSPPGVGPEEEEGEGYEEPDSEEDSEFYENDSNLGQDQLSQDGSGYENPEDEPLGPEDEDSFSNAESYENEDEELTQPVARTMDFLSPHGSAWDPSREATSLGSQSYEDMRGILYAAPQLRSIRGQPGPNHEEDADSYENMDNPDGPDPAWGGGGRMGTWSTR


Assays:
human CD19 antigen = target: T1, human CD19 antigen; test: SPR (Biacore), antibody captured via Fc
Protocol: Part of the antibodies in Example 1 were tested for affinity, and the composition of the heavy chain variable regions and the light chain variable regions of the antibodies to be tested are shown in Table 2.
HEK293 cells were used to express the antibodies to be tested and Protein A was used for purification. The surface plasmon resonance technique (SPR) was used for determination, and the Fc capture method was used for antibody fixation.

[1] = target: T2, CD19 on CD19-positive target cells …; test: flow cytometry on CD19-positive Raji cells, antibody titrated, fluorescent anti-Fc secondary antibody, percent positive cells (panel 'scFv binding to Raji')
Protocol: (§1) Part of the antibodies in Example 1 were detected for surface binding to CD19-positive target cells SU-DHL-10 and Raji.
(§2) CD19-positive SU-DHL-10 or Raji cell lines were used, and humanized antibodies at different concentrations were used to bind the target cells. After binding, secondary antibodies (fluorescent labeled anti-Fc antibodies) were used for staining. After cleaning the residual antibodies, the positive rate was analyzed by flow cytometry to draw the binding curve of antibodies binding to cell surface antigens.

[2] = target: T2, CD19 on CD19-positive target cells …; test: flow cytometry on CD19-positive SU-DHL-10 cells, antibody titrated, fluorescent anti-Fc secondary antibody, percent positive cells (panel 'scFv binding to SU-DHL-10')
Protocol: as §1, §2

Row | Binder | Kd (human CD19 antigen) | koff (human CD19 antigen) | kon (human CD19 antigen) | EC50 (read off the curve) [1] | EC50 (read off the curve) [2]
1 | humanized CD19 antibody VH7 + VL6 (antibody, V domains shown) VH: QVKLQESGPGLVKPSETLSLTCTVSGVSLPDYGVSWIRQPPGKGLEWLGVIWGSETTYYNSALKSRLTISKDTSKNQFSLKLSSVTAADTAVYYCAKHYYYGGSYAMDYWGQGTLVTVSS VL: DIQMTQSPSSLSASVGDRVTITCRASQDISKYLNWYQQKPGGAVKLLIYHTSRLHSGVPSRFSGSGSGTDYTFTISSLQPEDIATYFCQQGNTLPYTFGGGTKLEIK | 4.57 nM | 0.000592 s⁻¹ | 130000 M⁻¹ s⁻¹ | ~0.03 mg/L | ~0.01 mg/L
2 | humanized CD19 antibody VH8 + VL6 (antibody, V domains shown) VH: QVKLQESGPGLVKPSETLSLTCTVSGVSLPDYGVSWIRQPPGKGLEWIGVIWGSETTYYNSALKSRVTISKDTSKSQVFLKLSSVTAADTAVYYCAKHYYYGGSYAMDYWGQGTLVTVSS VL: DIQMTQSPSSLSASVGDRVTITCRASQDISKYLNWYQQKPGGAVKLLIYHTSRLHSGVPSRFSGSGSGTDYTFTISSLQPEDIATYFCQQGNTLPYTFGGGTKLEIK | 3.26 nM | 0.000383 s⁻¹ | 117000 M⁻¹ s⁻¹ | ~0.04 mg/L | ~0.01 mg/L
3 | humanized CD19 antibody VH8 + VL5 (antibody, V domains shown) VH: QVKLQESGPGLVKPSETLSLTCTVSGVSLPDYGVSWIRQPPGKGLEWIGVIWGSETTYYNSALKSRVTISKDTSKSQVFLKLSSVTAADTAVYYCAKHYYYGGSYAMDYWGQGTLVTVSS VL: DIQMTQSPSSLSASVGDRVTISCRASQDISKYLNWYQQKPGKAPKLLIYHTSRLHSGVPSRFSGSGSGTDYTFTISSLQPEDIATYFCQQGNTLPYTFGGGTKLEIK | 3.87 nM | 0.000602 s⁻¹ | 155000 M⁻¹ s⁻¹ | ~0.03 mg/L | ~0.01 mg/L

The remaining lines, values ahead:

Row | Kd (human CD19 antigen) | koff (human CD19 antigen) | kon (human CD19 antigen) | EC50 (read off the curve) [1] | EC50 (read off the curve) [2] | Binder
4 | 1.55 nM | 0.000182 s⁻¹ | 118000 M⁻¹ s⁻¹ | ~0.03 mg/L |  | humanized CD19 antibody VH10 + VL5 (antibody, V domains shown) VH: QVKLQESGPGLVKPSETLSLTCTVSGVSLPDYGVSWIRQPPGKGLEWLGVIWGSETTYYNSALKSRLTISKDTSKSQVFLKLSSVTAADTAVYYCAKHYYYGGSYAMDYWGQGTLVTVSS VL: DIQMTQSPSSLSASVGDRVTISCRASQDISKYLNWYQQKPGKAPKLLIYHTSRLHSGVPSRFSGSGSGTDYTFTISSLQPEDIATYFCQQGNTLPYTFGGGTKLEIK
5 | 1.7 nM | 0.000186 s⁻¹ | 109000 M⁻¹ s⁻¹ |  |  | humanized CD19 antibody VH9 + VL5 (antibody, V domains shown, also called H9L5) VH: QVQLQESGPGLVKPSETLSLTCTVSGVSLPDYGVSWIRQPPGKGLEWLGVIWGSETTYYNSALKSRLTISKDTSKSQVSLKLSSVTAADTAVYYCAKHYYYGGSYAMDYWGQGTLVTVSS VL: DIQMTQSPSSLSASVGDRVTISCRASQDISKYLNWYQQKPGKAPKLLIYHTSRLHSGVPSRFSGSGSGTDYTFTISSLQPEDIATYFCQQGNTLPYTFGGGTKLEIK

— US20230235052A1 (GRACELL BIOTECHNOLOGIES SHANGHAI, published 2023)
